What was measured:
Test in all cases: pull-down; GST fusion bound to GST resin in 1× PBS pH 7.4, 0.1% Triton X-100, 2 h at 4 °C; incubated with purified tubulin-His 2 h at 4 °C; western blot with anti-His antibody
Details in all cases: both partners purified
TUB4–His = target: T1, TUB4–His (Arabidopsis, UniProt P24636 1-444)
T1 construct: β-tubulin TUB4 of Arabidopsis, gene cloned into pET28a; also called tubulin–His; source: E. coli (Rosetta strain), purified using Ni-NTA agarose

TUB6–His = target: T2, TUB6–His (Arabidopsis, UniProt P29514 1-449)
T2 construct: β-tubulin TUB6 of Arabidopsis, gene cloned into pET28a; also called tubulin–His; source: E. coli (Rosetta strain), purified using Ni-NTA agarose
T2 sequence (P29514 whole entry): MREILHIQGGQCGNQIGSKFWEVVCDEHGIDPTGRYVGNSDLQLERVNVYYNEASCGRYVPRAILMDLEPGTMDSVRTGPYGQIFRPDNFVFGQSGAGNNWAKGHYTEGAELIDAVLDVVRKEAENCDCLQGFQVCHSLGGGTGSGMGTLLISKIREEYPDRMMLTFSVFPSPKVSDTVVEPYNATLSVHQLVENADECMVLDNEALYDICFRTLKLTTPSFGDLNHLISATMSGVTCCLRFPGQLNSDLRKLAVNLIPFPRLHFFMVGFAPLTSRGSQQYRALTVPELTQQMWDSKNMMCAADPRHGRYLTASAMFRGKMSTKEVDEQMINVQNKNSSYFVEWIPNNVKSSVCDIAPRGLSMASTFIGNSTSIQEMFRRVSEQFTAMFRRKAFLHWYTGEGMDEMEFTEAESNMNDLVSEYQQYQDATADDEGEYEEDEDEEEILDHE

TUA5–His = target: T3, TUA5–His (Arabidopsis, UniProt B9DHQ0 1-450)
T3 construct: α-tubulin TUA5 of Arabidopsis, gene cloned into pET28a; also called tubulin–His; source: E. coli (Rosetta strain), purified using Ni-NTA agarose
T3 sequence (B9DHQ0 whole entry): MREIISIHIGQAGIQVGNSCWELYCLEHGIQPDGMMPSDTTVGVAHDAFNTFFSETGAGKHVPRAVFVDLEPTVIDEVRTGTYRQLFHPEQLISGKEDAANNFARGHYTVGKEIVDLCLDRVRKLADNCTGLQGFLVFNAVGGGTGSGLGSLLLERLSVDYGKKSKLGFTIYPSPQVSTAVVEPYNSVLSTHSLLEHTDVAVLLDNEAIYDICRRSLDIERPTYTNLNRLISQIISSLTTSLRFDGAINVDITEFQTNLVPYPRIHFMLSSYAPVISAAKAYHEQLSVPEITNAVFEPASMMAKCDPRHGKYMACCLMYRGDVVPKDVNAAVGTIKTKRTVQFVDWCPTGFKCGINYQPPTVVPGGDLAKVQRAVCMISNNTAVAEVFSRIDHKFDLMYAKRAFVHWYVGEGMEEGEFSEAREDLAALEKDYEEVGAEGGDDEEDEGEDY

TUB3–His = target: T4, TUB3–His (Arabidopsis, UniProt Q9ASR0 1-450)
T4 construct: β-tubulin TUB3 of Arabidopsis, gene cloned into pET28a; also called tubulin–His; source: E. coli (Rosetta strain), purified using Ni-NTA agarose
T4 sequence (Q9ASR0 whole entry): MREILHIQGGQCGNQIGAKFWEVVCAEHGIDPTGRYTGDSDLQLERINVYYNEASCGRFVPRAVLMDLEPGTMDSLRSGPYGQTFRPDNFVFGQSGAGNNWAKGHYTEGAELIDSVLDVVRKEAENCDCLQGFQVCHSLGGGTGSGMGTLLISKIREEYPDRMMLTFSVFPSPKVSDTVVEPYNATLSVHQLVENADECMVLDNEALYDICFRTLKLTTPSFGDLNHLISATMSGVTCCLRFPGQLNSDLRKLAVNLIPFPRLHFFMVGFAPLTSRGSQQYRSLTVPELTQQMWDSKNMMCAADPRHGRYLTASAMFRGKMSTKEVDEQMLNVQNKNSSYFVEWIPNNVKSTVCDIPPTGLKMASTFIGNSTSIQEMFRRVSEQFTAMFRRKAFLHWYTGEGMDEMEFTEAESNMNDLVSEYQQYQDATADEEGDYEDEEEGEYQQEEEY

TUA1–His = target: T5, TUA1–His (Arabidopsis, UniProt P11139 1-450)
T5 construct: α-tubulin TUA1 of Arabidopsis, gene cloned into pET28a; also called tubulin–His; source: E. coli (Rosetta strain), purified using Ni-NTA agarose
T5 sequence (P11139 whole entry): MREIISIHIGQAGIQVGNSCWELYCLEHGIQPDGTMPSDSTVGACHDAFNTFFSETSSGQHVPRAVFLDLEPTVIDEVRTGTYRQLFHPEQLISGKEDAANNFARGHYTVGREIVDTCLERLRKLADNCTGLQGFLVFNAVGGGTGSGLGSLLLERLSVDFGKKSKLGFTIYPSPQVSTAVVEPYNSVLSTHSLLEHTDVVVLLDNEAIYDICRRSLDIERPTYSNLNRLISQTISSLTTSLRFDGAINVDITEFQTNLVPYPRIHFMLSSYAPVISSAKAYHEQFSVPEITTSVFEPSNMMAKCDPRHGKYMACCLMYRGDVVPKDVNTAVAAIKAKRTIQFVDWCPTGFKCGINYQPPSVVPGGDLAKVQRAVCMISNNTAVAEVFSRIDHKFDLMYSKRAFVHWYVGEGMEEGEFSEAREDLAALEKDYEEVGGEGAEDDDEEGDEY

TUB7–His = target: T6, TUB7–His (Arabidopsis, UniProt P29515 1-449)
T6 construct: β-tubulin TUB7 of Arabidopsis, gene cloned into pET28a; also called tubulin–His; source: E. coli (Rosetta strain), purified using Ni-NTA agarose
T6 sequence (P29515 whole entry): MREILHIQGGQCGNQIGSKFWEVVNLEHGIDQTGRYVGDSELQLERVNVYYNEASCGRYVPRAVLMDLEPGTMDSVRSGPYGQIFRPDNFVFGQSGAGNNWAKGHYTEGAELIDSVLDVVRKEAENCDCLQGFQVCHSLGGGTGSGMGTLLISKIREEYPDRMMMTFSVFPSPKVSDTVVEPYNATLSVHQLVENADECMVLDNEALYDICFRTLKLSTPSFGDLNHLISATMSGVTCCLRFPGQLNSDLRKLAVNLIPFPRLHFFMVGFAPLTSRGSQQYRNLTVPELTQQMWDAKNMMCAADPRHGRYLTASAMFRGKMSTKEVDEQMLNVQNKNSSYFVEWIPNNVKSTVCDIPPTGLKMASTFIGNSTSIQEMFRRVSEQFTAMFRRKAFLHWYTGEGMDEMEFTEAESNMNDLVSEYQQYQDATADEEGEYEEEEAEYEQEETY

TUA3–His = target: T7, TUA3–His (Arabidopsis, UniProt Q56WH1 1-450)
T7 construct: α-tubulin TUA3 of Arabidopsis, gene cloned into pET28a; also called tubulin–His; source: E. coli (Rosetta strain), purified using Ni-NTA agarose
T7 sequence (Q56WH1 whole entry): as the sequence (B9DHQ0 whole entry) above

TUB8–His = target: T8, TUB8–His (Arabidopsis, UniProt P29516 1-449)
T8 construct: β-tubulin TUB8 of Arabidopsis, gene cloned into pET28a; also called tubulin–His; source: E. coli (Rosetta strain), purified using Ni-NTA agarose
T8 sequence (P29516 whole entry): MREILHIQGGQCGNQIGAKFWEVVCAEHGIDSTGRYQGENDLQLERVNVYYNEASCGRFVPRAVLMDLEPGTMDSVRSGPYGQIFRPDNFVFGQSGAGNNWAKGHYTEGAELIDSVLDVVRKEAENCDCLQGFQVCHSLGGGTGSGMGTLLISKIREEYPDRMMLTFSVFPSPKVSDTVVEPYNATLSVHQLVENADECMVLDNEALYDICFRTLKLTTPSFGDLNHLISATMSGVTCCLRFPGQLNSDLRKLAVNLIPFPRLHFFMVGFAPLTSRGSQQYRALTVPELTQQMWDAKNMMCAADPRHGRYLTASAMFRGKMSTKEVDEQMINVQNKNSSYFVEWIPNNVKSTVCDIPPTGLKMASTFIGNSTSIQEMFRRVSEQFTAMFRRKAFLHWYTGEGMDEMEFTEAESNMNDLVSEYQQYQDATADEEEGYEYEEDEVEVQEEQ

Measured: binding result

T1 sequence (P24636 whole entry): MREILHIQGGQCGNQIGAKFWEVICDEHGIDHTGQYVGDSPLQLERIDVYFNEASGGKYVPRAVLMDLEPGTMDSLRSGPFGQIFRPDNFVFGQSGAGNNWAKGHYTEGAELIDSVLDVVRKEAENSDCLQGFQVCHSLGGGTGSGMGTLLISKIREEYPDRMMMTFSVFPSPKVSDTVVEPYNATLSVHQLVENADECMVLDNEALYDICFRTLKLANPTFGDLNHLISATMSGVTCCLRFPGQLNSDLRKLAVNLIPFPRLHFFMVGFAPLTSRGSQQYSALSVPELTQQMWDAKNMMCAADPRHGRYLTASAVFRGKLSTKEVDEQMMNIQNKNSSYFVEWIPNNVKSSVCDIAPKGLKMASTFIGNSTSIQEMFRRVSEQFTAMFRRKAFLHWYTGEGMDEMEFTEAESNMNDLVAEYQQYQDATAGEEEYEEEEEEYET

B1: GST–BIN2 (BRASSINOSTEROID …2) (enzyme, Arabidopsis, UniProt Q39011 1-380, looked up)
chain: MADDKEMPAAVVDGHDQVTGHIISTTIGGKNGEPKQTISYMAERVVGTGSFGIVFQAKCLETGETVAIKKVLQDRRYKNRELQLMRVMDHPNVVCLKHCFFSTTSKDELFLNLVMEYVPESLYRVLKHYSSANQRMPLVYVKLYMYQIFRGLAYIHNVAGVCHRDLKPQNLLVDPLTHQVKICDFGSAKQLVKGEANISYICSRFYRAPELIFGATEYTTSIDIWSAGCVLAELLLGQPLFPGENAVDQLVEIIKVLGTPTREEIRCMNPHYTDFRFPQIKAHPWHKIFHKRMPPEAIDFASRLLQYSPSLRCTALEACAHPFFDELREPNARLPNGRPFPPLFNFKQEVAGSSPELVNKLIPDHIKRQLGLSFLNQSGT
notes: BRASSINOSTEROID …2 (BIN2), GSK3-like kinase of Arabidopsis, 380 aa; also called BIN2–GST; source: E. coli (Rosetta strain), purified using glutathione resin
binds: TUB4–His | TUB6–His | TUA5–His | TUB3–His | TUA1–His | TUB7–His | TUA3–His | TUB8–His

Source: article PMC6018924, “Brassinosteroids regulate pavement cell growth by mediating BIN2-induced microtubule stabilization” (Journal of Experimental Botany, 2018)
